This experiment addresses human recombinant galectin-9, medium isoform (gal-9M) (human) (UniProt O00182). Briefly: SPR; Biacore T200; gal-9M covalently bound to a CM5 chip (NHS/EDC, 10 μg/mL, pH 5, acetate buffer); Gal-Nab1 and Gal-Nab2 as analytes, 1.5 to 400 nM, 40 μL/min, 400 s, albumin 0.1 mg/mL and tween 0.05%; dissociation 500 s; the paper says the KD reflects avidity rather than affinity (apparent). A general note: SPR reads the build-up and loss of mass on a sensor chip optically.

Chain of human recombinant galectin-9, medium isoform (gal-9M) (human) (O00182 other isoform, or with tags, fused parts or gaps): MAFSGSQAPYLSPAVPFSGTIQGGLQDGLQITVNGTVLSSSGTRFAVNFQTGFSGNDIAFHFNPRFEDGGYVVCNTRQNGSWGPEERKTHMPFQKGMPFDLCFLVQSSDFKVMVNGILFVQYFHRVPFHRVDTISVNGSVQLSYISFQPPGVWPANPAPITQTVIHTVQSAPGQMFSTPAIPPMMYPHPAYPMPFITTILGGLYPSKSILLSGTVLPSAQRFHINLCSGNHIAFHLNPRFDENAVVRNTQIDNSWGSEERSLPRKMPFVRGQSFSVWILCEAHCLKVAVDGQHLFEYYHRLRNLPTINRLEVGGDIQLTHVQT

B1: Gal-Nab1 (antibody, V domains shown)
VH: KVQLQQSGAELVKPGASVKLSCKASGYTFTDYTIHWVKQRSGQGLEWIGWFYPGSHSIKYNEQFKDRATLTADKSSSTVYMELSRLTSEDSAVYFCTRHGGYDGFDYWGQGTTLTVSS
VL: DIVMSQSPSSLAVSVGEKITMSCKSSQSLFYSTNQKNYLAWYQQKPGQSPKLLIYWASTRESGVPDRFTGSGSGTDFTLTISSVKAEDLAVYYCQQYYYFPYTFGGGTKLEIK
A word on the koff: it is a measure of how fast the partners let go of each other. As a reminder, the kon is the rate constant with which the complex forms. Consider B1, for which the Kd came out at 4.34 nM, the koff was 0.000115 s⁻¹, the kon was found to be 26500 M⁻¹ s⁻¹ and the t1/2 was 124 min.

For the origin of these results see PMC6133441.
